A value given as a limit tells only on which side of the number the result lay.

From patent publication US20210130452A1 (Merck KGaA, published 2021) come the findings set out here.

Experiment [1] has as its target T1, human IL-17A (human, UniProt Q16552 24-155, biotinylated with Sulfo-NHS-LC-Biotin in the AlphaScreen assays only).
T1 construct: also called hIL-17A; recombinant human IL-17A
Put plainly: AlphaScreen competition, hIL-17A - IL-17RA-Fc.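 Note: receptor Fc-fusion plus Acceptor and streptavidin Donor beads incubated with the mixture for 1 h at room temperature before reading.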
Experimental: (§1) To this mixture, the IL-17RA or IL-17RC Fc-fusions, Acceptor beads and the streptavidin Donor beads were added and further incubated for 1 hour at RT.

The target in experiment [2] is T2, human IL-17F (human, UniProt Q96PD4 31-163, biotinylated with Sulfo-NHS-LC-Biotin in the AlphaScreen assays only).
T2 construct: also called hIL-17F; recombinant human IL-17F
T2 sequence: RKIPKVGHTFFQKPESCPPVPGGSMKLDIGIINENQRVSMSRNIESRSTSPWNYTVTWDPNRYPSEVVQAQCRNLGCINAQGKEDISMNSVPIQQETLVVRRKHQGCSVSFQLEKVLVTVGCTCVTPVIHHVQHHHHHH
Put plainly: SPR Biacore, hIL-17F on chip; periplasmic extract (*); NB = no binding. On the technique in general: Surface plasmon resonance follows binding to a sensor surface in real time, without labels.
Experimental: (§2) Off-rates of the periplasmic extracts containing anti-IL-17 Nanobodies were measured by Surface Plasmon Resonance (SPR) using a Biacore T100 instrument. […] Periplasmic extracts containing IL-17 neutralizing Nanobodies were injected for 2 minutes at a flow rate of 45 μl/min to allow binding to chip-bound antigen. Next, binding buffer without periplasmic extracts was sent over the chip at the same flow rate to allow spontaneous dissociation of bound Nanobody. From the sensorgrams obtained for the different periplasmic extracts koff-values (k₄) were calculated.

Experiment [3] deals with T1, human IL-17A. Put plainly: cell-based or functional assay.
The target of experiment [4] is T1, human IL-17A. Put plainly: AlphaScreen competition, hIL-17A - IL-17RC-Fc.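 Note: Read-out after 1 h at room temperature with the receptor Fc-fusion, Acceptor beads and streptavidin-coated Donor beads present.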 In general terms: Alpha assays give light when donor and acceptor beads are brought close together.
Experimental: as §1
Experiment [5] deals with T1, human IL-17A. As to the kind of experiment: SPR Biacore, hIL-17A on chip; periplasmic extract (*).
Experimental: as §2
The target of experiment [6] is T3, human IL-17A/F heterodimer (human, UniProt Q16552 24-155; Q96PD4 31-163, limits assumed, biotinylated with Sulfo-NHS-LC-Biotin in the AlphaScreen assays only).
T3 construct: also called hIL-17A/F
As to the kind of experiment: AlphaScreen competition, hIL-17A/F - IL-17RC-Fc.
Experimental: as §1

Experiment [7] concerns the target T4, human IL-17A (human, UniProt Q16552 24-155).
T4 construct: secreted form (GenBank U32659) expressed in Hek293 with C-terminal 6-His; also called hIL-17A; IL-17A-6HIS
As to the kind of experiment: AlphaScreen IL-17A-IL-17RA, average.
T4 sequence (Q16552 other isoform, or with tags, fused parts or gaps): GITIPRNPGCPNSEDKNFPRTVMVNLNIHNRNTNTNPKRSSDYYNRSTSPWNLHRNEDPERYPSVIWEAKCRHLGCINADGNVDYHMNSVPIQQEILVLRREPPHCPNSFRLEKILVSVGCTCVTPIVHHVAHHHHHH

Experiment [8] has as its target T3, human IL-17A/F heterodimer. As to the kind of experiment: AlphaScreen competition, hIL-17A/F - IL-17RA-Fc.
Experimental: as §1
In experiment [9] the target is T3, human IL-17A/F heterodimer. Put plainly: cell-based or functional assay.
Target sequence in this assay (Q16552 24-155 limits assumed, chain 1 of 2, one chain of several): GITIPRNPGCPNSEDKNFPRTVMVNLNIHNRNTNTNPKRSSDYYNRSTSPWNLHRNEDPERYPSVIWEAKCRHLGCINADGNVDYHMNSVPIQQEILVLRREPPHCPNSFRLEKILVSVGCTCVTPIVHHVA
For experiment [10], the target named is T2, human IL-17F. As to the kind of experiment: SPR Biacore, hIL-17F on chip; purified protein.
Experimental: as §2
The target of experiment [11] is T3, human IL-17A/F heterodimer. Put plainly: SPR Biacore, hIL-17A/F on chip; purified protein.
In experiment [12] the target is T2, human IL-17F. Put plainly: AlphaScreen competition, hIL-17F - IL-17RC-Fc.
Experimental: as §1
For experiment [13], the target named is T2, human IL-17F. Put plainly: cell-based or functional assay.
Experiment [14] addresses T2, human IL-17F. Put plainly: AlphaScreen competition, hIL-17F - IL-17RA-Fc.
Experimental: as §1
For experiment [15], the target named is T1, human IL-17A. Put plainly: SPR Biacore, hIL-17A on chip; purified protein.
Experiment [16] concerns the target T5, human IL-17F (human, UniProt Q96PD4 31-163).
T5 construct: made in Hek293 cells (GenBank AF384857); also called hIL-17F; hIL17F
T5 sequence: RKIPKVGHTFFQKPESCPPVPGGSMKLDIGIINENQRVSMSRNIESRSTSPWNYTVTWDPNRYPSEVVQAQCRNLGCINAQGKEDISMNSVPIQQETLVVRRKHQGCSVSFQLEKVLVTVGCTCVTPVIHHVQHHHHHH
As to the kind of experiment: AlphaScreen hIL-17F-IL-17RC; vs IL17MS13E02.

Experiment [17] concerns the target T6, human IL-17A/F heterodimer (human, UniProt Q16552 24-155; Q96PD4 31-163, limits assumed).
T6 construct: bought, made in E. coli (R&D Systems 5194-IL/CF); also called hIL-17A/F; hIL17A/F
Put plainly: SPR (Biacore) off-rate.

Experiment [18] concerns the target T5, human IL-17F. Put plainly: SPR (Biacore) off-rate.
The target of experiment [19] is T7, human IL-17A (human, UniProt Q16552 24-155).
T7 construct: secreted form made in Hek293 cells (GenBank U32659); also called hIL-17A; hIL17A
Put plainly: SPR (Biacore) off-rate.
T7 sequence (Q16552 other isoform, or with tags, fused parts or gaps): as the sequence (Q16552 other isoform, or with tags, fused parts or gaps) above

The target in experiment [20] is T7, human IL-17A. Put plainly: AlphaScreen hIL-17A-IL-17RA; vs IL17MS13E02.

T1 sequence (Q16552 other isoform, or with tags, fused parts or gaps): as above
T6 sequence (Q16552 24-155 limits assumed, chain 1 of 2, one chain of several): as the sequence (Q16552 24-155 limits assumed, chain 1 of 2, one chain of several) above

B1: 02E03 (VHH)
VHH: EVQLVESGGGLVQPGGSLRLSCAASGFTFSSYAMSWARQAPGEGLEWVSDINSGGTRTTYADSVKGRFTISRDNAKNTLYLQMNSLKPEDTAVYVCAKLSVFRSQLGGKYYGGDYENRGQGTQVTVSS
notes: Class 1 Nanobody (anti-IL-17A); not shown: c-myc, His6 tag
For the molecule B1, the values for the IC50 (with human IL-17A [1]; in the experiment with human IL-17A [4]; in experiment [6]) were 0.256 nM, 0.778 nM and greater than 250 nM, respectively. Besides, the binding result with human IL-17F [2] is recorded as “no binding”. Moreover, the “IL-17A-induced IL-6 production in HT-1080 cells, Emax” value (“IL-17A-induced IL-6 production … Emax” below) with human IL-17A [3] is 99.3%. Also, the “IL-17A-induced IL-6 production in HT-1080 cells, IC50” value (shortened to “IL-17A-induced IL-6 production … IC50”) in the experiment with human IL-17A [3] is 16.4 nM. For the same molecule, the koff with human IL-17A [5] was 0.0009 s⁻¹.

B2: IL17MS3015 (VHH, name in Kabat numbering)
VHH: EVQLVESGGGLVQPGGSLRLSCTASGTIVNIHVMGWYRQAPGKQRELVALIFSGGSADYADSVKGRFTISRDNSKNTVYLQMNSLRPEDTAVYYCAAEIGYYSGGTYYSSEAHWGQGTLVTVSS
notes: basic + Q18L, A84P; Kabat positions
Take B2: the IC50 with human IL-17A [7] was determined as 0.171 nM.

B3: IL17MS3016 (VHH, name in Kabat numbering)
VHH: EVQLVESGGGLVQPGGSQRLSCAASGTIVNIHVMGWYRQAPGKQRELVALIFSGGSADYADSVKGRFTISRDNSKNTVYLQMNSLRPEDTAVYYCAAEIGYYSGGTYYSSEAHWGQGTLVTVSS
notes: basic + T23A, A84P; Kabat positions
In turn, B3 returned an IC50 in the experiment with human IL-17A [7] of 0.177 nM.

B4: 01D02 (VHH)
VHH: EVQLVESGGGLVQAGGSLRLSCAASGLSFSSYALGWFRQAPGKERDFVAAINWSGDNTHYADSVKGRFTISRDNAKNTVSLQMNSLKPEDTAVYYCAAQLGYESGYSLTYDYDYWGQGTQVTVSS
notes: as for B1
On to B4, for which the IC50 with human IL-17A [1] turned out to be 0.13 nM; in experiment [8], 71.7 nM; with human IL-17A [4] it was 0.363 nM; in [6], 94.7 nM. Further, the binding result with human IL-17F [2] is “no binding”. Also, in the experiment with human IL-17A [3], the “IL-17A-induced IL-6 production … Emax” value was 101%. Moreover, the “IL-17A-induced IL-6 production … IC50” value with human IL-17A [3] was found to be 4.8 nM. The same molecule yielded a koff with human IL-17A [5] of 0.00044 s⁻¹.

B5: 16A04 (VHH)
VHH: EVQLVESGGGLVQAGGSLRLSCAASGRTFSSYVVGWFRQAPGKEREFIGAISGSGDSIYYAVSEKDRFTISRDNGKNTLYLQMSSLKAEDTAVYYCTADQEFGYLRFGRSEYWGQGTQVTVSS
notes: Class 3 Nanobody (anti-IL-17F); also called IL17MS16A04; not shown: c-myc, His6 tag
As for B5, the IC50 is greater than 77.9 nM with human IL-17A [1]; 90.4 nM in [8]; 0.052 nM with human IL-17F [12]; greater than 131 nM in the experiment with human IL-17A [4]; 1.09 nM with human IL-17F [14]; 0.389 nM in experiment [6]. Also, in [9], the “IL-17A/F-induced IL-6 production in HT-1080 cells, Emax” value came out at 95%. The “IL-17A/F-induced IL-6 production in HT-1080 cells, IC50” value in [9] was found to be 48.2 nM. Further, the koff is 0.00053 s⁻¹ with human IL-17F [10] and 0.003 s⁻¹ in [11]. Moreover, the “IL-17F-induced IL-6 production in HT-1080 cells, Emax” value in the experiment with human IL-17F [13] came out at 100%. Also, in the experiment with human IL-17F [13], the “IL-17F-induced IL-6 production in HT-1080 cells, IC50” value was 112 nM.

B6: 17C01 (VHH)
VHH: EVQLVESGGRLVQAGGSLRLPCAASGRTFTSYPMGWFRQAPGKEREFVAAISMSGDDAAYADFVRGRFTISRDDARNTVYLHMTSLKPEDTAVYYCAARTSYDGTYDYIDDYSYWGQGTQVTVSS
notes: Class 4 Nanobody (cross-reactive: anti-IL-17A, IL-17F and IL-17A/F); not shown: c-myc, His6 tag
Take B6: the IC50 came out at 0.066 nM with human IL-17A [1]; 0.264 nM in [8]; 0.168 nM with human IL-17F [12]; 0.169 nM in the experiment with human IL-17A [4]; 0.296 nM in the experiment with human IL-17F [14]; 0.801 nM in experiment [6]. The “IL-17A/F-induced IL-6 production in HT-1080 cells, Emax” value in experiment [9] came out at 107%. Besides, the “IL-17A/F-induced IL-6 production in HT-1080 cells, IC50” value in [9] came out at 41.8 nM. The koff with human IL-17A [15] turned out to be 0.00029 s⁻¹; with human IL-17F [10] it was 0.056 s⁻¹; in experiment [11], 0.00075 s⁻¹. The “IL-17A-induced IL-6 production … Emax” value with human IL-17A [3] amounted to 105%. The “IL-17A-induced IL-6 production … IC50” value in the experiment with human IL-17A [3] was determined as 15.1 nM.

B7: 18B05 (VHH)
VHH: EVQLVKSGGGLVQPGGSLRLSCAASGGTFSLFAMGWFREAPGKEREFVAAIRWSDGSSYYADSVKGRFTISRDNAKNAVHLQSNSLKSEDTAVYYCYADVQGGLHRYWGQGTQVTVSS
notes: as for B6
Regarding B7, the IC50 in the experiment with human IL-17A [1] worked out at 0.173 nM; in experiment [8], 0.231 nM; with human IL-17F [12] it was 13.3 nM; in the experiment with human IL-17A [4], 0.408 nM; with human IL-17F [14], 36.6 nM; in experiment [6], 0.087 nM. Besides, in experiment [9], the “IL-17A/F-induced IL-6 production in HT-1080 cells, Emax” value is 118%. Besides, in experiment [9], the “IL-17A/F-induced IL-6 production in HT-1080 cells, IC50” value was found to be 37.1 nM. In addition, the koff came out at 0.00022 s⁻¹ with human IL-17A [15], 0.14 s⁻¹ with human IL-17F [10] and 0.00012 s⁻¹ in [11]. The “IL-17A-induced IL-6 production … Emax” value with human IL-17A [3] was 104%. For the same molecule, the “IL-17A-induced IL-6 production … IC50” value with human IL-17A [3] is 20.6 nM.

B8: 03E05 (VHH)
VHH: EVQLVESGGGLVQAGGSLRLSCAASGVTFDDYSIGWFRQAPGKEREGVSCISSSDGIPYYSDFVKGRFTTSIDNAKNTVYLQMNSLKPEDTAVYYCAAGFGRLCAEFDSWGQGTQVTVSS
notes: as for B1
As for B8, the figures for the IC50 (with human IL-17A [1]; in experiment [8]; in the experiment with human IL-17A [4]) were 0.058 nM, greater than 250 nM and 0.38 nM, respectively. The binding result with human IL-17F [2] is recorded as “no binding”. Also, in the experiment with human IL-17A [3], the “IL-17A-induced IL-6 production … Emax” value is 100%. Besides, the “IL-17A-induced IL-6 production … IC50” value in the experiment with human IL-17A [3] was found to be 4 nM. The same molecule showed a koff with human IL-17A [5] of 0.0001 s⁻¹.

B9: IL17MS3036 (VHH)
VHH: EVQLVESGGGLVQAGGSLRLSCAASGRTYDAMGWLRQAPGKEREFVAAISGSGDDTYYADSVKGRFTISKDNAGITMYLQMNSLKPEDTAVYYCATRRGLYYVWDTNDYENWGQGTQVTVSS
notes: variant of IL17MS13E02; Kabat numbering
In the case of B9, the “IC50 fold difference vs WT” value with human IL-17F [16] is 2.2 fold; in the experiment with human IL-17A [20] it was 2.06 fold. The off-rate (koff) in experiment [17] turned out to be 4.31e-05 s⁻¹; with human IL-17F [18], 0.0044 s⁻¹; with human IL-17A [19] it was 0.000132 s⁻¹.

B10: IL17MS3037 (VHH)
VHH: EVQLVESGGGLVQAGGSLRLSCAASGRTYDAMGWLRQAPGKEREFVAAISGSGDDTYYADSVKGRFTISKDNAGITMYLQMNSLKPEDTAVYYCATRRGLYYVWDANDYENWGQGTQVTVSS
notes: as for B9
For B10, the “IC50 fold difference vs WT” value with human IL-17F [16] is 1 fold; in the experiment with human IL-17A [20], 1.61 fold. The off-rate constant (koff) in experiment [17] was determined as 4.67e-05 s⁻¹; in the experiment with human IL-17F [18], 0.00367 s⁻¹; in the experiment with human IL-17A [19], 0.000116 s⁻¹.

What is called IC50 is the point on the concentration scale where inhibition reaches its midpoint. The low end stands for greater potency, the high end for weaker potency. As a reminder, the koff is the rate constant with which the complex falls apart. Lower therefore signals slow dissociation.
